Experiments:
Notch2 [1] = test: Notch inhibition, U2OS luciferase reporter on WT DLL4 coated plates; assay type: cell-based, human; details: plates coated with 50 nM WT DLL4, 10-fold dilutions from 3,000 nM
Procedure: (§1) For U2OS cells, on day one, 5×10^5 cells were plated in 6-well tissue culture plates. On day two, U2OS cells were transfected as described above. On day three, 96-well plates (Coastar) were coated with streptavidin and biotinylated WT DLL4 at 50 nM as described above. Next, U2OS reporter cells were detached with trypsin-EDTA and diluted at 200,000 cells/mL in DMEM media. Ten-fold serial dilutions of soluble DLL4 variants starting at 6,000 nM were prepared in DPBS and used to pre-block reports cells following the same protocol described above. Two-hundred microliters of inhibition reactions were added to 96-well plates pre-coated with biotinylated WT DLL4 ligand at 50 nM, and assay plates incubated for 24 hours at 37° C. and 5% CO2. On day fourth, luciferase signals were measured with Dual-Glo luciferase assay system (Promega) using a GloMax luminometer (Promega). Doxycycline at 2 μg/mL was maintained to […]. A ratio between firefly and Renilla luciferase was calculated, and Notch activation normalized to wells where inhibitors were non-added. The data represent fold-change of Notch activation as percentage, relative to Notch activation in the absence of inhibitors±s.d. of three independent biological replicates.
Target sequence in this assay (Q04721 26-1677 limits assumed): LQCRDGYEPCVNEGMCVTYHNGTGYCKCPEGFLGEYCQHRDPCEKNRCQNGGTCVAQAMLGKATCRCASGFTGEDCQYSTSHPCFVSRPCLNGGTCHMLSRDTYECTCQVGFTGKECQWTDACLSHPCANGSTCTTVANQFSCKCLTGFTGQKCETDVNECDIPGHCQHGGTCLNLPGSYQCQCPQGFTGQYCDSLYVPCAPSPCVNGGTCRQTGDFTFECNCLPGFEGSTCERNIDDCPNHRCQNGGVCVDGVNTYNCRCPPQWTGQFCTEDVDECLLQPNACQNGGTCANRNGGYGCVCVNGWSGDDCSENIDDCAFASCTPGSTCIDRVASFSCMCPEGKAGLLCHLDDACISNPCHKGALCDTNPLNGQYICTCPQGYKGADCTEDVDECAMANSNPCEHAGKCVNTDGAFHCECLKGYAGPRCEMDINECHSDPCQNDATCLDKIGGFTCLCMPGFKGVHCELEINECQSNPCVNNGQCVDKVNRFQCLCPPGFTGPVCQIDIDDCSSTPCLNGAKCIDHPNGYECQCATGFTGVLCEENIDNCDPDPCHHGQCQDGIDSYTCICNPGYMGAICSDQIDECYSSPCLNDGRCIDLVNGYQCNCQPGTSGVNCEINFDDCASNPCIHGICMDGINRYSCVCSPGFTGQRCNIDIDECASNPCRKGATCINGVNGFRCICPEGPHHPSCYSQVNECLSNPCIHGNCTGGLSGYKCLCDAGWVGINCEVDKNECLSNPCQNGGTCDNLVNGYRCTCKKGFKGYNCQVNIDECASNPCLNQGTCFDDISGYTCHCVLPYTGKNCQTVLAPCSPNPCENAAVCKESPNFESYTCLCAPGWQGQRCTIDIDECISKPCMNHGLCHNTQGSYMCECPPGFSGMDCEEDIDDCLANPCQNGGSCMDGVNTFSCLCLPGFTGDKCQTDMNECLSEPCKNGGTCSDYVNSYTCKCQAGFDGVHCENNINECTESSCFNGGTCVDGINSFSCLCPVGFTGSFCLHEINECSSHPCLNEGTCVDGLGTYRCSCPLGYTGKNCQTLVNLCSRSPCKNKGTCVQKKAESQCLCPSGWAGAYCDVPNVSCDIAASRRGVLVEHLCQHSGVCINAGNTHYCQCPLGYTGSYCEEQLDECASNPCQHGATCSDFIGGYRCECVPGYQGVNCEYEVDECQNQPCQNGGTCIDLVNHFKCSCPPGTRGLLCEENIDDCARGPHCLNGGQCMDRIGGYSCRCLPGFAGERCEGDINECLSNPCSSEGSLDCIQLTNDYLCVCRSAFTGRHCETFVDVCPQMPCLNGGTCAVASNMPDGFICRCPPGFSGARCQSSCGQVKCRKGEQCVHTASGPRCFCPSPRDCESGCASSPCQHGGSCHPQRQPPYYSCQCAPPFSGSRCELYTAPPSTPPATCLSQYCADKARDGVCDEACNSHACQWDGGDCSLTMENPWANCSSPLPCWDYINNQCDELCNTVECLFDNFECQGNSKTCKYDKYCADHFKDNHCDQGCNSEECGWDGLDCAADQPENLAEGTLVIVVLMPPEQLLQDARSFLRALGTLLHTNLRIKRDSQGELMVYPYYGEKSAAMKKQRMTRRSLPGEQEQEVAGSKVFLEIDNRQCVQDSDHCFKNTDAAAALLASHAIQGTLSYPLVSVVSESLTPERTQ

Notch1 [2] = test: as above; assay type: cell-based, human; details: plates coated with 50 nM WT DLL4, 10-fold dilutions from 3,000 nM
Procedure: as §1

Notch3 [3] = test: as above; assay type: cell-based, human; details: plates coated with 50 nM WT DLL4, 10-fold dilutions from 3,000 nM
Procedure: as §1

Notch3 (EGF5-12) = biological target: T1, Notch3 (EGF5-12) (Homo sapiens, UniProt Q9UM47); test: SPR determination of equilibrium dissociation constants; assay type: binding
T1 construct: hNotch3 (EGF5-12, residues 197-505); gp67 signal peptide (N); made in house; host or cells: HiFive Trichoplusia ni insect cells (baculovirus)
T1 sequence (Q9UM47 197-505): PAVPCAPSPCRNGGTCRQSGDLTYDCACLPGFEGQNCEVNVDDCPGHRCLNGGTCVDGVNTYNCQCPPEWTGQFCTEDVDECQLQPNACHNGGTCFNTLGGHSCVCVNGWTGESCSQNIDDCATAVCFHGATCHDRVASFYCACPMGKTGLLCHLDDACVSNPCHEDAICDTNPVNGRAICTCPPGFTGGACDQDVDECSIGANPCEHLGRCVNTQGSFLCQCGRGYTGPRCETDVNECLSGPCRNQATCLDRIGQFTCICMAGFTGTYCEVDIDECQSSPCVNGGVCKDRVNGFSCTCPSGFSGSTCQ
Procedure: (§2) Equilibrium dissociation constants were determined by surface plasmon resonance using a Biacore T200 instrument (GE Healthcare). Approximately 100 resonance units (RU) of biotinylated Notch extracellular fragments (Notch1 (EGF6-13), Notch2 (EGF6-13), Notch3 (EGF5-12), Notch4 (7-12), and mouse Notch1 (EGF6-13)) were immobilized on individual flow cells at 5 μl/min using a streptavidin-coated sensor chip (Series S Sensor chip SA, GE Healthcare). Three-fold serial dilutions of recombinant DLL4 proteins (N-EGF5) starting at 50 μM (WT DLL4), 18 μM (DLL4.v2), and 6 μM (DLL4.v1 and Delta^MAX) were flowed over the chip at 25° C. in SPR buffer (20 mM HEPES pH 7.4, 150 mM NaCl, 1 mM calcium chloride, 0.1% BSA supplemented with 0.005% surfactant P20). Association (“on-rate”) and dissociation (“off-rate”) phases were performed at 10 μl/min for 120 seconds and 300 seconds, respectively. The sensor chip was regenerated after each injection with 30-second washes of 2.25M Magnesium Chloride containing 25% Ethylene Glycol at 50 μL/min. Data collection rate was performed at 10 Hz, and curves were reference-subtracted from a flow cell containing 100 RU of a negative control non-related protein (biotinylated mouse RNF43 PA domain). The maximum RU for each experiment was normalized to a value of 100% and plotted as a function of concentration using Prism 9 software (GraphPad). Steady-state binding and kinetic curves were fitted using the Biacore T200 evaluation software to a 1:1 Langmuir model to determine the KD values.

mouse Notch1 (EGF6-13) = biological target: T2, mouse Notch1 (EGF6-13) (Mus musculus, UniProt Q01705); test: as above; assay type: binding; details: mNotch1 EGF6-13; read-out: dissociation constant (KD)
T2 construct: mouse Notch1 (EGF6-13, residues 221-526); gp67 signal peptide (N); made in house; host or cells: HiFive Trichoplusia ni insect cells (baculovirus)
T2 sequence (Q01705 221-526): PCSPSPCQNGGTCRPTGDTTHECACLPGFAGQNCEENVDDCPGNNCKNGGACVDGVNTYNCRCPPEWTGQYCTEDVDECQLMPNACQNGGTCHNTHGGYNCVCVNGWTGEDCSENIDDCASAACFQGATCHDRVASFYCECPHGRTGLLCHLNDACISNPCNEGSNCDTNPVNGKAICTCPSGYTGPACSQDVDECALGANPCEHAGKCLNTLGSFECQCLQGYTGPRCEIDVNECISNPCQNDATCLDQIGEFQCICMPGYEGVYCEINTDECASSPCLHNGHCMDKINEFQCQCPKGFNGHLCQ
Procedure: as §2

Notch2 [4] = test: Notch activation in co-culture format with HEK293T (U2OS luciferase reporter); assay type: cell-based, human; details: HEK293T expressing full-length ligand, 1:1 ratio; P=0.037
Procedure: (§3) On day one, U2OS reporter cells (signal receiver cells) were detached with trypsin-EDTA, washed with DPBS, and 5×10^5 cells were added to 6-well plates (Falcon) for transfection with luciferase reporter vectors. On day two, U2OS cells were transfected as described above. On day three, signal receiver cells were detached with trypsin-EDTA, and 100 μL of DMEM media containing 20,000 cells were added to tissue culture 96-well plates (Coastar). In parallel, HEK293T-expressing WT DLL4 or Delta^MAX were detached with trypsin-EDTA, counted manually, and dilutions prepared such that 100 μL of DMEM containing 20,000 signal sender cells were added over signal receiver cells (cell ratio 1:1). Doxycycline (Sigma) at 2 μg/mL was used to induce Notch-Gal4 expression. On day four, luciferase firefly and Renilla signals were determined with Dual-Glo luciferase assay system (Promega) using a GloMax luminometer (Promega). A luminescence ratio firefly:Renilla was determined for every well and normalized to the signal of a well containing U2OS reporter cells and HEK293T non-expressing DLL4 ligands. Notch activation is represented as the mean fold-change over the control±s.d. of three independent biological replicates.
Target sequence in this assay (Q04721 221-530 limits assumed): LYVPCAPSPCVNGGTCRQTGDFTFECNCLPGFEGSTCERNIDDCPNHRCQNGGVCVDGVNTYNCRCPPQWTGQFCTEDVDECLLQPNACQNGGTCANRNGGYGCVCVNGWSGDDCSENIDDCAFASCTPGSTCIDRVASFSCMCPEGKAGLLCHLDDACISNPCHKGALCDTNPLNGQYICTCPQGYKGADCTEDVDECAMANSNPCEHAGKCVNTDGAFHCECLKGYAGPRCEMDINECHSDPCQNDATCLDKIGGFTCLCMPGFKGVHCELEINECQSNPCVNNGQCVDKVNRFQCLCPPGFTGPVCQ

Notch1 [5] = test: as above; assay type: cell-based, human; details: HEK293T expressing full-length ligand, 1:1 ratio
Procedure: as §3

Notch3 [6] = test: as above; assay type: cell-based, human; details: HEK293T expressing full-length ligand, 1:1 ratio
Procedure: as §3

Chain of Notch1 (P46531 19-1664 limits assumed): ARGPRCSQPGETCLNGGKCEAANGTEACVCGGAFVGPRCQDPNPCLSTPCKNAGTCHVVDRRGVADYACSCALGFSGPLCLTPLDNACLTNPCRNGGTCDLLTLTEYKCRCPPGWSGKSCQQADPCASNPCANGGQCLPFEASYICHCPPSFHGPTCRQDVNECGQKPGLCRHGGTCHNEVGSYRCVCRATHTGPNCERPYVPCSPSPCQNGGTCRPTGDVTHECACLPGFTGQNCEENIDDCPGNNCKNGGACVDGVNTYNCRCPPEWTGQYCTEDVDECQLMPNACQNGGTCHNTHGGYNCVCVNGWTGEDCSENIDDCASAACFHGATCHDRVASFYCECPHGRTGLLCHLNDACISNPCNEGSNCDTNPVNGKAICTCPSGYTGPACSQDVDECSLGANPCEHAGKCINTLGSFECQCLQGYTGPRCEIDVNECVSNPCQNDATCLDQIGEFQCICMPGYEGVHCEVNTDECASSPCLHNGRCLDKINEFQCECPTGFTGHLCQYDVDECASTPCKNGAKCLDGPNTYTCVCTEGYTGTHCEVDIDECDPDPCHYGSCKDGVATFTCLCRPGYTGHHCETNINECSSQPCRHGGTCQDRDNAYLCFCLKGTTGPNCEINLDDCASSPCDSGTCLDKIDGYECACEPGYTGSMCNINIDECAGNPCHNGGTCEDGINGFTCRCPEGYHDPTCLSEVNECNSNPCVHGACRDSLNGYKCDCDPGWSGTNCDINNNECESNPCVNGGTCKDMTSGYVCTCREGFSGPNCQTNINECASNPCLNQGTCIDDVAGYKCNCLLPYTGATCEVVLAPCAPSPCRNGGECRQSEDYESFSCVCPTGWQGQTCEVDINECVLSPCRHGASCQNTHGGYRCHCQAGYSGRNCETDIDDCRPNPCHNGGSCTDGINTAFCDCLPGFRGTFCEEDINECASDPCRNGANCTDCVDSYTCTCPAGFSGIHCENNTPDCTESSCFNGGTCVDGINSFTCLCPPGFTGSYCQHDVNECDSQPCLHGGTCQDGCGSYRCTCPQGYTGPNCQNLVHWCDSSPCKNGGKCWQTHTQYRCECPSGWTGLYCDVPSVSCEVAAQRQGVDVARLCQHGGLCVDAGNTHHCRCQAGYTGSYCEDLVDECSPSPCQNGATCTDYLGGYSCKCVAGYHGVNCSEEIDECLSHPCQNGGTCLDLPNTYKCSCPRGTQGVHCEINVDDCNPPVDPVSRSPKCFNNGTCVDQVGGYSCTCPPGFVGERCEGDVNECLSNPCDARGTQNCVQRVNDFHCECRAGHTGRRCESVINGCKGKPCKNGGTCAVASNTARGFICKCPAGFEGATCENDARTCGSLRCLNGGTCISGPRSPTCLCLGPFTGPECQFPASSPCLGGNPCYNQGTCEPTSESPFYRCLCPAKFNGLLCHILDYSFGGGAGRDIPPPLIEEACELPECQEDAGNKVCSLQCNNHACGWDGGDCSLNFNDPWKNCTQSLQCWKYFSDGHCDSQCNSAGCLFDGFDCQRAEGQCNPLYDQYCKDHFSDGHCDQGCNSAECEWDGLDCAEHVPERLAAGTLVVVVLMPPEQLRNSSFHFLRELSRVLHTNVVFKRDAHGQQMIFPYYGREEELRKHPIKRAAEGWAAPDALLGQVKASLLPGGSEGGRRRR
Chain of Notch1 (P46531 1665-1756 limits assumed): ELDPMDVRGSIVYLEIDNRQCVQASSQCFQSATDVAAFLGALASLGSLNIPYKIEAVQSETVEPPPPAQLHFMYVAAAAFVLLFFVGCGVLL

B1: Delta^MAX: engineered human DLL4 consensus variant with 10 mutations combining DLL4.v1 and DLL4.v2 mutations; sequence matches SEQ ID NO: 4/10 (protein)
chain: SSVFQLQLQEFINERGVLASGRPCEPGCRTFFRVCLKHFQAVVSPGPCTFGTVSTPVLGTNSFAVRDDSSGGGRNPLQLPLNFTWPGTFSLIIEAWHAPGDDLRPEALPPDALISKFAIQGSLAVGQNWLLDEQTSTLTRLRYSYRVICSDNYYGDNCSRLCKKRNDYFGHYVCQPDGNPSCLPGWTGEYCQQPICLSGCHEQNGYCSKPAECLCRPGWQGRLCNECIPHPGCRHGTCSTPWQCLCDEGWGGLYCDQDLNYCTHHSPCKNGATCRNSGPRSYTCTCRPGYTGVDCELELSECDSNPCRNGGSCKDQEDGYHCLCPPGYYGLHCEHSTLSCADSPCFNGGSCRERNQGANYACECPPNFTGSNCE
effect of soluble competitor on Notch2 signaling (Notch2 [1]): dose-dependent decreases | effect of soluble competitor on Notch1 signaling (Notch1 [2]): dose-dependent decreases | effect of soluble competitor on Notch3 signaling (Notch3 [3]): dose-dependent decreases | enhancement of affinity compared to WT DLL4 (Notch3 (EGF5-12); Notch3): 591 fold | Kd (Notch3 (EGF5-12); SPR, 25° C., ligand N-EGF5, read-out: dissociation constant (KD)): 49 nM | Kd (mouse Notch1 (EGF6-13)): 25 nM | Notch2 activation compared to unstimulated cells (Notch2 [4]): significant level of Notch2 activation | Emax of signaling vs WT DLL4 (Notch1 [5]): ~2 fold | Emax of signaling vs WT DLL4 (Notch3 [6]): ~2 fold

From patent US20260055369A1, “METHOD FOR GENERATING CELLS OF THE T CELL LINEAGE WITH ENGINEERING BROADLY REACTIVE HUMAN NOTCH LIGAND” (H. Lee Moffitt Cancer Center and Research Institute, Inc., priority 2022, published 2026)
